Measurements: paper PMC11487272

Key:
[1] = target: cFLIP^tDED_H7G (cFLIP tandem DED, residues 1-181, H7G) (UniProt O15519); assay: crystal structure
[2] = target: wild-type cFLIP^tDED as used in the ternary co-purification (UniProt O15519); assay: cryo-EM structure

Row | stoichiometry N (molecules in the complex) [1] | stoichiometry N (molecules in the complex (Complex D)) [2] | stoichiometry N (molecules in the complex (Complex E)) [2] | stoichiometry N (molecules in the complex (Complex F)) [2] | stoichiometry N (molecules in the complex (Complex G)) [2] | Substance
1 | 6 |  |  |  |  | cFLIP^tDED_H7G (cFLIP tandem DED, residues 1-181, H7G) (from UniProt O15519 1-181) (domain or fragment)
2 |  | 5 | 6 | 8 | 4 | wild-type cFLIP^tDED as used in the ternary co-purification (from UniProt O15519 1-181) (domain or fragment)
